Test results: PMC11957051

Experiments:
[1] = biological target: P. fluorescens RloA, Pfl01_1762 (20–178) (P. fluorescens); assay: SEC-MALS
[2] = biological target: P. aeruginosa RloA2, PA0462 (18–169) (P. aeruginosa); assay: SEC-MALS

Row | Substance | stoichiometry N [1] | stoichiometry N [2]
1 | P. fluorescens RloA, Pfl01_1762 (20–178) (enzyme) | 2 | –
2 | P. aeruginosa RloA2, PA0462 (18–169) (enzyme) | – | 2
